From patent publication US20230151085A1 (TRINOMAB BIOTECH, published 2023)

Experiments:
[1] = biological target: T1, human neurotrophin-3 (hNT-3) (human, UniProt P20783 139-257); experiment: ELISA, neurotrophin coated on plate, goat anti-human IgG-HRP detection
T1 construct: Bought protein (Absin)
T1 sequence (looked up): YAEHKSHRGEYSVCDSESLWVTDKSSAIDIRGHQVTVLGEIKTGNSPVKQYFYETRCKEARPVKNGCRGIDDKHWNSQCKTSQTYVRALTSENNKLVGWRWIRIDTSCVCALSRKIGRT
Experimental: (§1) The present invention determines the cross-reactivity of antibody TRN1027 to other neurotrophins by ELISA. HBDNF, hNT-3 and hNT-4 (Absin) were used as antigens to coat the 96-well plate at […] overnight at 4° C., respectively. Then the plate was blocked with the blocking solution for 2 hours at ambient temperature. The plate was added with antibody TRN1027 with decreasing concentrations (ranging from 10 ug/ml-0 ug/ml) at 100 ul/well and incubated at 37° C. for 1 h. Antibody TRN1027 was detected by TMB with goat-anti-human IgG-HRP (1: 10000) and the substrate developer. OD values were measured at dual wavelengths of 450-630 nm.

[2] = biological target: T2, human neurotrophin-4 (hNT-4) (human, UniProt P34130 81-210); experiment: as above
T2 construct: Bought protein (Absin)
T2 sequence (looked up): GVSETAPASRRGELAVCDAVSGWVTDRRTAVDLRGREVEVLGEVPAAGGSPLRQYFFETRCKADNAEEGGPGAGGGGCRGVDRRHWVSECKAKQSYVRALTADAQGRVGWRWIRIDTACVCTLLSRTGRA
Experimental: as §1

[3] = biological target: T3, human brain-derived neurotrophic factor (hBDNF) (human, UniProt P23560 129-247); experiment: as above
T3 construct: Bought protein (Absin)
T3 sequence (looked up): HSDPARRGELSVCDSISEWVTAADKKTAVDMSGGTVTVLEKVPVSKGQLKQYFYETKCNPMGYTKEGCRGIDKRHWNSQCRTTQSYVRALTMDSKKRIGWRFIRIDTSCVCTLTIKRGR
Experimental: as §1

[4] = biological target: T4, human nerve growth factor (hNGF) (human, UniProt P01138 122-241); experiment: ELISA, hNGF coated at 2 ug/mL, antibody titrated from 10 ug/mL, goat anti-human IgG-HRP
T4 construct: Bought protein (Sino Biological)
Experimental: Antibody TRN1027 was tested for binding activity to hNGF by the ELISA assay. Specifically, 2 μg/mL of hNGF as an antigen was diluted and coated with carbonate buffer at pH 9.6 in a 96-well plate overnight at 4° C.; the plate was blocked by the blocking solution at 37° C. for 2 h. The antibody TRN1027 was serial diluted with the blocking solution, starting at 10 μg/mL, 3-fold dilution for 12 gradients; each gradient of antibody TRN1027 was then added to a 96-well plate and incubated for 1 h at 37° C. The plate was washed with the PBST buffer, added with 100 μ/well LHRP labeled goat anti-human IgG (1: 10000), and incubate at 37° C. for 1 h. The plate was washed with the PBST buffer, added with 100 μL/well TMB developing solution away from light, and placed for 5 min at 37° C. H₂SO₄ was added to stop the reaction. The detection was conducted at 450 nm wavelength. The results were calculated and analyzed.

[5] = biological target: T4, human nerve growth factor (hNGF); experiment: SPR (BIACORE3000), antibody captured by anti-human IgG (Fc) on CM5 chip, hNGF as analyte
Text: The binding force between an antibody and an antigenic determinant, called antibody affinity, reflects the ability of the antibody molecule to bind to the antigenic determinant. In this example, the antigen binding affinity of antibody TRN1027 was detected using surface plasmon resonance analysis (BIACORE3000). Anti-human IgG (Fc) antibody was immobilized on the surface of CM5 sensor chip (GE) by amino-coupling method. The anti-NGF antibody was captured as a ligand, the capture level reached about 400 RU. Different concentrations of hNGF protein were passed through the detection channel as the analyte streams. The binding of antigen to antibody and dissociation of the bound complex was monitored in real-time. Kinetic analysis (calculation of dissociation constants (KD)) was performed with the Biacore X100 Evaluation Software (2.0.1).

[6] = biological target: T4, human nerve growth factor (hNGF); experiment: cell-based or functional assay

T4 sequence (P01138 122-241 limits assumed): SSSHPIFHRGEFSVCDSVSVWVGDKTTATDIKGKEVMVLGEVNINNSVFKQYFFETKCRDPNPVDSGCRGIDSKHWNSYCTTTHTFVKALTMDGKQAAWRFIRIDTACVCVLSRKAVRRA

| Binder | binding result [1] | binding result [2] | binding result [3] | EC50 [4] [ng/mL] | Kd [5] [nM] | EC50 of inhibition of NGF-induced proliferation of TF-1 cells (MTS) [6] [ng/mL] | EC50 of neutralisation of NGF on PC-12 cells (Celltiter-Glo cell viability) [6] [ng/mL] |
| --- | --- | --- | --- | --- | --- | --- | --- |
| human anti-NGF antibody TRN1027 (antibody, V domains shown) VH: QLQLQESGSGLVRPSQTLSLTCAVSGDSMNSGGYSWSWIRQPPGKGLEWIGYIYYSGSTHYNPSLESRVTLSLHRSKNQFFLQLSSVTAADTAVYYCARTLWFGEFEGFDPWGQGILVTVSS VL: QSALTQPPSASGSPGQSVTISCTGTSSDVGGYNFVSWYQHHPGKAPKLLLYEVSKRPSGVPDRFSGSKSGNTASLTVSGLQAEDEADYFCSSFAGSNNFVFFGGGTKLTVL | no binding (tested: 10 ug/ml-0 ug/ml) | no binding (tested: 10 ug/ml-0 ug/ml) | no binding (tested: 10 ug/ml-0 ug/ml) | 1.07 | 0.0168 | 3.01 | 8.83 |
| anti-NGF antibody Tanezumab (CAS No. 880266-57-9, published in CN 102746399 B, also known as E3) (antibody, V domains shown) VH: QVQLQESGPGLVKPSETLSLTCTVSGFSLIGYDLNWIRQPPGKGLEWIGIIWGDGTTDYNSAVKSRVTISKDTSKNQFSLKLSSVTAADTAVYYCARGGYWYATSYYFDYWGQGTLVTVSS VL: DIQMTQSPSSLSASVGDRVTITCRASQSISNNLNWYQQKPGKAPKLLIYYTSRFHSGVPSRFSGSGSGTDFTFTISSLQPEDIATYYCQQEHTLPYTFGQGTKLEIKR |  |  |  | 2.96 |  | 14.3 | 32.2 |
